Laboratory results taken from the DeepSol protein solubility set.

Assay: soluble on expression in E. coli; label from the status in PepcDB or PDB records

Sequence | soluble on expression in E. coli
MSLSNYISIKGAKVNNLKNIDVNIPRNKLVVITGLSGSGKSSLAFDTLYAEGQRRYVESLSSYARQFLGRMSKPECDFIKGIPPAIAIEQKVNSRNPRSTVGTSTEIYEYLRLLYARVGKTYSPISGQLVKKHSIEDIVNCMLSFPKGTKYTVLTPMMPREGRTLLQQLEMDLKQGFTRIEVNREIVRIEDFLQQTAAEDKKQNIYLLVDRMTADDSKDSISRLTDSAETAMYEGDGNCLLRFYSADGSTQLFSFSTKFETDGIKFEEPNDQMFSFNSPLGACPECEGFGKVIGIDEHLVIPNRALSVYDGAVLCWRGEKMGEWLQEFIHEAPAHDFPIFAPYYELTQEQKDYLWHGPRNKACIDSFFKMLEENQYKIQYRVMLARYRGKTICPVCHGTRLKKEAGYVKVGGKSISQLVDLPIHDLKEFFRTLELDAHDTAIAKRILTEITNRINFLMDVGLGYLTLNRLSNSLSGGESQRINLATSLGSSLVGSLYILDEPSIGLHSRDTDRLIKVLRQLQELGNTVVVVEHDEEIIRAADYIIDIGPQAGRLGGQIVYQGNMNDLQRNEGHHHHHH | soluble
GSAEEWYFGKITRRESERLLLNPENPRGTFLVRESETTKGAYCLSVSDFDNAKGLNVKHYKIRKLDSGGFYITSRTQFSSLQQLVAYYSKHADGLCHRLTNVCPTSKEFIVTD | soluble
MLEDLIGKAYLESAEDRRRGDRSEEVEAIRKYIRSARRTVVPNWNAEKVDAINDVLRSFNLREAEHLQFNTNWADLTRMPAVTKALMALDISGADLVIARGRLGVPGSGSLLVIMDSRGRLLSAAMSPPHVIHSMEVREAVRSEMTHALERIGFKR | soluble
MGSDKIHHHHHHMKLRLRKPMRSAGNMSSLVDFYNDFITRHGFEERKGIEETLRYLENGHNVILKAPTGYGKTTLTMILANAVSSNIDIGSRVIHVLPYRAIVQDLYLKLKKYADKGIIYTKSIGAQDMDYHDSPFFMKKVNVTTLDTFILNLFKLPTIDFKLIFKNYGSHYEFPRALIYSSIVIFDEFHLLGEDGKSLGAGLSAIEVLSDAGVPIVVTSATIDKGLERVLMDKLGKSGKVVYASDFKIDRKIYVNELEKDEISIADEKVKEGKRVLLVYNTRMGAIEAYWKLKERGLSPILIHSKFSKKDRIDKVNKINDAKLVVSTQVIEAGIDTSFDVLITEACPSHNLIQRAGRVARYGKGGKGKLEGEVYIFPFSGKVYNEGEVKETMKRVRKLKTIDESLLIERDYTKEIDSILARDLSVIDNSVFVDYKKVKSLYENICSITRETSIILGFPPNSDNVDDAIPLTEEEAIKIIKSKGSSAFVGNSNIKLYAGKCLQLEMIKNDILGVRIQDYNSEIGGVY | not soluble
MSKLVYLLLMIFFLNPAWANTHYHQHPVSPLANALRTGTDTNGNALYLCRAKLFNSIQPGKTWAGYGRCNVPYGGKEYVLSQFTIPNQNEFGRYSWEPNVEHALLMGKDTNGNPLFVCQSNFNGSIQPGKTWPGYSHCNISYGGREIITDNYRILSRPTEIIVRTQPPVHRHPSQNRHYHYLEHHHHHH | soluble
MGSDKIHHHHHHFEERSGVVPCGTPWGQWYQTLEEVFIEVQVPPGTRAQDIQCGLQSRHVALAVGGREILKGKLFDSTIADEGTWTLEDRKMVRIVLTKTKRDAANCWTSLLESEYAADPWVQDQMQRKLTLERFQKENPGFDFSGAEISGNYTKGGPDFSNLEKDGT | not soluble
MKMMPSKLQKNKQRLRNDPLNQNKGKPDLNTTLPIRQTASIFKQPVTKVTNHPSNKVKSDPQRMNEQPRQLFWEKRLQGLSASDVTEQIIKTMELPKGLQGVGPGSNDETLLSAVASALHTSSAPITGQVSAAVEKNPAVWLNTSQPLCKAFIVTDEDIRKQEERVQQVRKKLEEALMADILSRAADTEEMDIEMDSGDEALEHHHHHH | soluble
MWLWRKLWGIGGTMSRNTEATDDVKTWTGGPLNYKEGFFTQLATDELAKGINEEVVRAISAKRNEPEWMLEFRLNAYHAWLEMEEPHWLKAHYDKLNYQDYSYYSAPSCGNCDDNCASEPGAVQQTGANAFLSKEVEAAFEQLGVPVREGKEVAVDAIFDSVSVATTYREKLAEQGIIFCSFGEAIHDHPELVRKYLGTVVPGNDNFFAALNAAVASDGTFIYVPKGVRCPMELSTYFRINAEKTGQFERTILVADEDSYVSYIEGCSAPVRDSYQLHAAVVEVIIHKNAEVKYSTVQNWFPGDNNTGGILNFVTKRALCEGENSKMSWTQSETGSAITWKYPSCILRGDNSIGEFYSVALTSGHQQADTGTKMIHIGKNTKSTIISKGISAGHSQNSYRGLVKIMPTATNARNFTQCDSMLIGANCGAHTFPYVECRNNSAQLEHEATTSRIGEDQLFYCLQRGISEEDAISMIVNGFCKDVFSELPLEFAVEAQKLLAISLEHSVG | soluble
MSSPRSNKPKIVNGPGGYILQDVPHLIDYLPDLPTYPNPLQDNPAYSVVKQYFVHADDSVPEKVVVHKDGPRGVHFRRAGPRQKVYFESDEVHACIVTCGGLCPGLNTVIREVVSSLSYMYGVKRILGIDGGYRGFYAKNTIPLNSKVVNDIHKRGGTIIGTSRGGHDTNKIVDSIQDRGINQVYIIGGDGTQRGASVIFEEIRRRRLKVAVVGIPKTIDNDIPVIDKSFGFDTAVEEAQRAINAAHVEAESNENGIGFVKLMGRYSGYIAMYATLASRDVDCCLIPESPFYLEGEGGLFEFIERRLKDHGHMVIVLAEGAGQDLMCKSMESTPMDASGNKLLKDVGLWLSQSIKDHFKKNKMVMNLKYIDPTYMIRAVPSNASDNVYCTLLAQSAVHGAMAGYTGYTSGLVNGRQTYIPFYRITETQNNVVITDRMWARLLSSTNQPSFLGPKDTSEEKKELPETPLLDDGAVDIPPVTKEVTK | soluble
KEKARAMRVNKRAPQMDWNRKREIFSNF | soluble
MGSDKIHHHHHHMRERAAVPPRAVQHSDDVAMVLRMDQPDFIQITDDAVSRDDCAAIVQRMRDSQQLQPGRIGSGVFPDLKHSRDLRISGLADWAAVENRLQQAVFEGLLRYLRQYPQALISPLMLQVTTADGTPHRLVAEDIAQMSDAALSDLARTCLRPGAINLQWYLADQGGYPYWHCELYPRDAGAETLHRHLLWTLYLNEEFEQGETEFLFQQRKARPRTGSLLIAPTAFTHTHRGNRPVGGDKFIATSWILFQSAQALYGGE | not soluble
MTTVLYYLPASPPCRSVLLLAKMIGVELDLKVLNIMEGEQLKPDFVELNPQHCIPTMDDHGLVLWESRVILSYLVSAYGKDENLYPKDFRSRAIVDQRLHFDLGTLYQRVVDYYFPTIHLGAHLDQTKKAKLAEALGWFEAMLKQYQWSAANHFTIADIALCVTVSQIEAFQFDLHPYPRVRAWLLKCKDELEGHGYKEINETGAETLAGLFRSKLKQ | soluble
MSLRRGIYHIENAGVPSAIDLKDGSSSDGTPIVGWQFTPDTINWHQLWLAEPIPNVADTFTLCNLFSGTYMDLYNGSSEAGTAVNGWQGTAFTTNPHQLWTIKKSSDGTSYKIQNYGSKTFVDLVNGDSSDGAKIAGWTGTWDEGNPHQKWYFNRMSVSSAEAQAAIARNPHIHGTYRGYILDGEYLVLPNATFTQIWKDSGLPGSKWREQIYDCDDFAIAMKAAVGKWGADSWKANGFAIFCGVMLGVNKAGDAAHAYNFTLTKDHADIVFFEPQNGGYLNDIGYDSYMAFY | soluble
MSLNTEIEMNELLEKAKKIKCLICDVDGVLSDGLLHIDNHGNELKSFHVQDGMGLKLLMAAGIQVAIITTAQNAVVDHRMEQLGITHYYKGQVDKRSAYQHLKKTLGLNDDEFAYIGDDLPDLPLIQQVGLGVAVSNAVPQVLEFADWRTERTGGRGAVRELCDLILNAQNKAELAITGYLKQEGHHHHHH | soluble
MSLEGRSRLWPKTSAPGAFSRRSPERSWPSRRVQRHFPAKEGREAASAAALRASRRSMVGLTVAVRTGPCDLATRKTKSRWATGSDMTKSSKATSLEILACDAGWRNYHFVKLTTDDGIVGWSEFDEGFGSPGVGAAIQRLSTRIIGQNIFQHERIYAELFAATRPAAGGVVAQALGAIENAMLDAKAKCLGVPCYELLGGKIRDRVRVYWSHCATWRINHPSWYKPPIESLDGVKAMGREVREKKFTALKTNIFSYDDGKPTGWRPGFGSPFAPEINVDRKILRDLRMHLEAIRDGAGPDVDILLDCNFNAKTEGYLKILRTIADLDMFWIEIDSFNPEALGYIRRQSPHPISSCETLLGLREFLPYFHEQAMDVAIIDTPWNGVWQSMKIASAAEAFEVNVAPHNFYGHLCSMMNAHFCAAVPNLRIMEIDIDRLSWDRELFTHEPEIEDGHLIIPDRPGWGTEPNEEALRAHPPKTNGGLLNYGRKSEGHHHHHH | not soluble
MTPTHPTVTELLLPLSEIDDRGVYFEDSFTSWRDHIRHGAAIAAALRERLDPARPPHVGVLLQNTPFFSATLVAGALSGIVPVGLNPVRRGAALAGDIAKADCQLVLTGSGSAEVPADVEHINVDSPEWTDEVAAHRDTEVRFRSADLADLFMLIFTSGTSGDPKAVKCSHRKVAIAGVTITQRFSLGRDDVCYVSMPLFHSNAVLVGWAVAAACQGSMALRRKFSASQFLADVRRYGATYANYVGKPLSYVLATPELPDDADNPLRAVYGNEGVPGDIDRFGRRFGCVVMDGFGSTEGGVAITRTLDTPAGALGPLPGGIQIVDPDTGEPCPTGVVGELVNTAGPGGFEGYYNDEAAEAERMAGGVYHSGDLAYRDDAGYAYFAGRLGDWMRVDGENLGTAPIERVLMRYPDATEVAVYPVPDPVVGDQVMAALVLAPGTKFDADKFRAFLTEQPDLGHKQWPSYVRVSAGLPRTMTFKVIKRQLSAEGVACADPVWPIRR | soluble
MSDIAPAAHSPYIPPTPEVGLPLWLLAELTYRCPLQCPYCSNPLDFARQGQELTTEQWFKVMQEAREMGAAQIGFSGGEPLVRQDLAELIAEARRLGFYTNLITSGIGLTEEKIIAFKKAGLDHIQISFQASDEQVNNMLAGSKKAFAQKLEMAKAVKKHGYPMVLNFVTHRHNIDRIDKIIELCLALEADFVELATCQFYGWAHLNRVGLLPTKDQLVRAEAVTNEYRDQLAAQDHPCKLIFVTPDYYEERPKACMNGWGNIFLTVTPDGTALPCHGARQMPIQFPNVREHSMQHIWYDSFGFNRFRGYDWMPEPCRSCDEKEKDFGGCRCQAFMLTGDAANADPVCSKSYHHGIITQARDESETATQTIEELAFRNDRNSRLIAKSS | not soluble
EGDPENGEKLQITIRRGKDGFGFTICCDSPVRVQAVDSGGPAERAGLQQLDTVLQLNERPVEHWKCVELAHEIRSCPSEIILLVWRV | soluble
MKRPHGYQITSLRADKYGGYYAANFVGNEILYFDVNNNVNALVKDGFSYLKSPYDVIEANNLLYVTLYSSDEIGVYDKVLGVKRKSIGNKGTKDGELLAPQYMAIDKRNYIYVSEWGNKRVSKFGLEGDFILHFGSRTSGYKGLLGPTGVTYLNENIYVADSLRNTIEVFDTSGNHLYSVFTSIEGIEGLSSDFVGNNVIVSSKDGVYKYSIAKKTITKILKADKMNSKISSSILDANNQMIVSDFNNAKVSVYKSDASLYDSLEHHHHHH | soluble
MRSQDKYERFIQLLAHEFFHLWNVKRIRPQALEVFNYDQENYTPSLWFCEGTTSYYDLLIPLRAGIYDAKTYLNYWSKEISRLITTPGRKVQPLSESSFDAWIKLYRPDTNTGNSQVSYYLKGELEHHHHHH | not soluble
MAQVMYATPDNMLSRFGEQDLTLLTEREDSVPGEINLALLEQALSDASAEIDGYIAGRYVLPLTTVPAVLERNCCDIARYFLYGDKAPEQVEKRYAAVVKFLTAVSKGDISLGLATTGETADQSELVISIESAGSVFGRKSAKGFI | soluble
